Data on ten substances can be found in US7034002.

For the assay, the target named is Angiotensin converting enzyme (rabbit lung acetone powder, Sigma; supernatant of the extract) (rabbit) (UniProt P12822). Description: cell-based or functional assay.
Sequence of UniProt P12822 (P12822 34-1310 limits assumed): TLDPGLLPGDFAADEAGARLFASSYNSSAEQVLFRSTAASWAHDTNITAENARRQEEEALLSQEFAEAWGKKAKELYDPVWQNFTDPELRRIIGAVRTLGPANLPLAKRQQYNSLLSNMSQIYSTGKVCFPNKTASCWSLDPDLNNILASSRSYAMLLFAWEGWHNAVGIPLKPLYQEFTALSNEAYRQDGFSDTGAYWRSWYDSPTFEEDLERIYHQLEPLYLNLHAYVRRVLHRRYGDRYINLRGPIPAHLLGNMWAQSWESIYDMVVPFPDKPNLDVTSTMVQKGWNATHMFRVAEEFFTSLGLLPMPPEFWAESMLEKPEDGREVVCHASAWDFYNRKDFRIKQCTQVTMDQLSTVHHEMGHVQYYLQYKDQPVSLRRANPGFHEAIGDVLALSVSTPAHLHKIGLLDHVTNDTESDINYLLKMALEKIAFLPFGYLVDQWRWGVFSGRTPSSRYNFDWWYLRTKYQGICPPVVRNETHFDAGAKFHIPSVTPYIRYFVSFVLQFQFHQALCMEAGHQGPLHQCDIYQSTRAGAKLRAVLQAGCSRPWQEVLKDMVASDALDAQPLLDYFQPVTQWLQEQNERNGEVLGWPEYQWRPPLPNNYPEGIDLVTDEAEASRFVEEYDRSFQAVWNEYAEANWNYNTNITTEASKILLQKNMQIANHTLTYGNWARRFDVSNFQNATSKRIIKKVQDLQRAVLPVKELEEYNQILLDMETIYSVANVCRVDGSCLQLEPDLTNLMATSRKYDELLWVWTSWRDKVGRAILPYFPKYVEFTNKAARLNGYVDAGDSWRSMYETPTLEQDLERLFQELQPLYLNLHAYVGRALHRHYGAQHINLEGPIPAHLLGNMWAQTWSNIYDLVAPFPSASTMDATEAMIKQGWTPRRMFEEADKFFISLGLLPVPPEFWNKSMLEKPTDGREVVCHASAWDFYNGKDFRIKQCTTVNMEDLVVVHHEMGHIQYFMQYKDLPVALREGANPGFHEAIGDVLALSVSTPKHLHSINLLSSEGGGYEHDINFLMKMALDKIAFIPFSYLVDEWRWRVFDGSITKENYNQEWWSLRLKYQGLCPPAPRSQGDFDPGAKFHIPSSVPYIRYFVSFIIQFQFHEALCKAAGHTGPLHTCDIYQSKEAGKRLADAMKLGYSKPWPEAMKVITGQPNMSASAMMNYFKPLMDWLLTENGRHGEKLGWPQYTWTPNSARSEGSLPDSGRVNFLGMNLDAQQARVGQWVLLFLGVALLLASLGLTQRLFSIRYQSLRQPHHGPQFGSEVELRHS
The substance “Fraction E-5: ethanol-soluble fraction of E-1” displayed an IC50 (angiotensin converting enzyme inhibitory activity, Bz-Gly-His-Leu substrate, OD228 of hippuric acid) of 40 µg/mL.

“Fraction E-9: ethanol precipitate of E-6” showed an IC50 (angiotensin converting enzyme inhibitory activity, Bz-Gly-His-Leu substrate, OD228 of hippuric acid) of 200 µg/mL. Regarding “Fraction E-3: membrane-penetrating fraction of E-1”, the IC50 (angiotensin converting enzyme inhibitory activity, Bz-Gly-His-Leu substrate, OD228 of hippuric acid) was 30 µg/mL. The substance “Fraction E-6: concentrated thermolysin hydrolysate of homogenized dried bonito” came in with an IC50 (angiotensin converting enzyme inhibitory activity, Bz-Gly-His-Leu substrate, OD228 of hippuric acid) of 110 µg/mL. The result for “Fraction E-8: membrane-penetrating fraction of E-6” reads 35 µg/mL; that for “Fraction E-4: ethanol precipitate of E-1”, 200 µg/mL; that for “Fraction E-1: concentrated thermolysin hydrolysate of the hot-water-extracted residue of dried bonito”, 80 µg/mL. Next, “Fraction E-10: ethanol-soluble fraction of E-6”: 50 µg/mL. Next, “Fraction E-7: membrane-concentrated fraction of E-6”: 310 µg/mL; “Fraction E-2: membrane-concentrated fraction of E-1”: 300 µg/mL.
